Laboratory results as given in PMC6050537 (2018).
Blank lines part the entries; values can stand above or below the binder they belong to. Non-standard residues stand in square brackets, D forms with d. 1Nal = N[C@@H](Cc1cccc2ccccc12)C(=O)O

Target: T1, Full length IDOL (1–445) (UniProt Q8WY64 1-445, NT-647-NHS dye (only the labelled copy in the MST assays))
T1 chain: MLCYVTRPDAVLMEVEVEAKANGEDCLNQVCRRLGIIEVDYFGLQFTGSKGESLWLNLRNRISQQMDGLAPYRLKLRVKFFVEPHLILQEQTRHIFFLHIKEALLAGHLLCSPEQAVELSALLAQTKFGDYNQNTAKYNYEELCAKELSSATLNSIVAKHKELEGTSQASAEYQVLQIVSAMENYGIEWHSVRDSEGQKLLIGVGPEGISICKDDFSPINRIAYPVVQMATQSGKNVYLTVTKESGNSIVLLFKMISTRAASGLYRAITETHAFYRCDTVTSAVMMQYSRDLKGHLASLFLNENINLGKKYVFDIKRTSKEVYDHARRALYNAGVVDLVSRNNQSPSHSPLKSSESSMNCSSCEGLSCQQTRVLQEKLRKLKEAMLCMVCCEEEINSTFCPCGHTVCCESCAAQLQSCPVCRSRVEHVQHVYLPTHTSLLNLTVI
Experiment: MST

Kd: 6.3 µM
Binder: cyclo(CF[1Nal]LYT) [RINGPep1 analogue containing 3-(1-naphthyl)-L-alanine]

Kd: 6.6 µM
B1: RINGPep2 (cyclo-CF-Cha-LYT) (peptide)
chain: CFXLYT
HELM: PEPTIDE1{C.F.[Cha].L.Y.T}$PEPTIDE1,PEPTIDE1,1:R1-6:R2$$$V2.0
SMILES: CC(C)C[C@@H]1NC(=O)[C@H](CC2CCCCC2)NC(=O)[C@H](Cc2ccccc2)NC(=O)[C@H](CS)NC(=O)[C@H]([C@@H](C)O)NC(=O)[C@H](Cc2ccc(O)cc2)NC1=O
